Results as given in paper PMC9482650, “Quantitative fragmentomics allow affinity mapping of interactomes” (Nature Communications, 2022).

B1: TRMT13, Q9NUP7 (peptide)
chain: NHSSSPETTA
B2: CLDN1, O95832 (peptide)
chain: PAPSSGKDYV
B3: TRPV3, Q8NET8 (peptide)
chain: EVEEFPETSV

The binders below were run against FRMPD4, Q14CM0 (assay: holdup assay). Conditions: plain residues with an end cap or a label only (N-terminal biotin on a linker: ado-ado).
Sequence of FRMPD4, Q14CM0 (Q14CM0 67-160): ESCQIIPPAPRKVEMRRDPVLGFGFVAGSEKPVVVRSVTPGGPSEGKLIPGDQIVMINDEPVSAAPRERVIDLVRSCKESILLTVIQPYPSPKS
Parameters: key: below the threshold = too weak to quantify, mostly under pKd 3.1 to 4
For B1, the pKd was “below the threshold”. With B2 the pKd was 3.59. B3 was tested, and the pKd was 3.74.

These binders were tested against NOS1, P29475 (assay: holdup assay). Conditions: plain residues with an end cap or a label only (N-terminal biotin on a linker: ado-ado).
Sequence of NOS1, P29475 (P29475 9-101): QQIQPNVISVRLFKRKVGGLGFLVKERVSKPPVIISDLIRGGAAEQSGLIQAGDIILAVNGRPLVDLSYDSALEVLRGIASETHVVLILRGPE
Parameters: key: below the threshold = too weak to quantify, mostly under pKd 3.1 to 4
B1 was tested, and the pKd was “below the threshold”. Work on B2 yielded a pKd of 4.06. B3 showed a pKd of 4.12.

The binders below were run against T1, TJP3_3, O95049 (assay: holdup assay). Conditions: plain residues with an end cap or a label only (N-terminal biotin on a linker: ado-ado).
T1 sequence (O95049 375-456, limits assumed, looked up): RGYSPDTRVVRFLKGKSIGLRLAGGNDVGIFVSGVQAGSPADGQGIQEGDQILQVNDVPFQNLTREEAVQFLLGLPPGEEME
Parameters: key: below the threshold = too weak to quantify, mostly under pKd 3.1 to 4
In the case of B1, the pKd is reported as “below the threshold”. Work on B2 yielded a pKd of 3.55. B3 showed a pKd of 3.57.

The binders below were run against SNX27, Q96L92 (assay: holdup assay). Conditions: plain residues with an end cap or a label only (N-terminal biotin on a linker: ado-ado).
Parameters: key: below the threshold = too weak to quantify, mostly under pKd 3.1 to 4
For B1, the pKd was “below the threshold”. Work on B2 yielded a pKd of 3.62. Binder B3 has a pKd of 5.83.

These binders were tested against T2, MPDZ_12, O75970 (assay: holdup assay). Conditions: plain residues with an end cap or a label only (N-terminal biotin on a linker: ado-ado).
T2 sequence (O75970 1857-1958, limits assumed, looked up): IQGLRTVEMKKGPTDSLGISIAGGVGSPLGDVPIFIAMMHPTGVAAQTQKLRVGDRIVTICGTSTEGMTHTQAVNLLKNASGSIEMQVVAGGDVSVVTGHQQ
Parameters: key: below the threshold = too weak to quantify, mostly under pKd 3.1 to 4
In the case of B1, the pKd is reported as “below the threshold”. For B2, the pKd was “below the threshold”. B3 was tested, and the pKd was “below the threshold”.

Each binder was assayed against MAGI2_6, Q86UL8 (assay: holdup assay). Conditions: plain residues with an end cap or a label only (N-terminal biotin on a linker: ado-ado).
Sequence of MAGI2_6, Q86UL8 (Q86UL8 1141-1229): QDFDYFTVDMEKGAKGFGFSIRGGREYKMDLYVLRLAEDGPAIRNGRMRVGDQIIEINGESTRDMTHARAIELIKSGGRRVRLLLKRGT
Parameters: key: below the threshold = too weak to quantify, mostly under pKd 3.1 to 4
With B1 the pKd was “below the threshold”. In the case of B2, the pKd is reported as “below the threshold”. For B3, the pKd was 4.71.

The binders below were run against Inadl_4, Q8NI35 (assay: holdup assay). Conditions: plain residues with an end cap or a label only (N-terminal biotin on a linker: ado-ado).
Sequence of Inadl_4, Q8NI35 (Q8NI35 547-651): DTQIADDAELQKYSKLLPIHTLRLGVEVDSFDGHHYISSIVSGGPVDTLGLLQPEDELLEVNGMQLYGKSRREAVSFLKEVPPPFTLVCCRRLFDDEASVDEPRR
Parameters: key: below the threshold = too weak to quantify, mostly under pKd 3.1 to 4
With B1 the pKd was “below the threshold”. In the case of B2, the pKd is reported as “below the threshold”. B3 gave a pKd of 3.49.

What follows are binders tested against T3, DFNB31_2, Q9P202 (assay: holdup assay). Conditions: plain residues with an end cap or a label only (N-terminal biotin on a linker: ado-ado).
T3 sequence (Q9P202 274-371, limits assumed, looked up): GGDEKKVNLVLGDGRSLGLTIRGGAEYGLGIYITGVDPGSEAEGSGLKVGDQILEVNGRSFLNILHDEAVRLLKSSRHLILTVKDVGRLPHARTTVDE
Parameters: key: below the threshold = too weak to quantify, mostly under pKd 3.1 to 4
For B1, the pKd was “below the threshold”. In the case of B2, the pKd is reported as “below the threshold”. Binder B3 has a pKd of 3.5.

These binders were tested against T4, CARD11, Q9BXL7 (assay: holdup assay). Conditions: plain residues with an end cap or a label only (N-terminal biotin on a linker: ado-ado).
T4 sequence (Q9BXL7 662-765, limits assumed, looked up): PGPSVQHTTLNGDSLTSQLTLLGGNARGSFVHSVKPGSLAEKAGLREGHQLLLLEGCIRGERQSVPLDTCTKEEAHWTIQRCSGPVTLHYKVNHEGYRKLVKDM
Parameters: key: below the threshold = too weak to quantify, mostly under pKd 3.1 to 4
For B1, the pKd was “below the threshold”. For B2, the pKd was “below the threshold”. B3 gave a pKd of 3.49.

What follows are binders tested against T5, DFNB31_1, Q9P202 (assay: holdup assay). Conditions: plain residues with an end cap or a label only (N-terminal biotin on a linker: ado-ado).
T5 sequence (Q9P202 135-233, limits assumed, looked up): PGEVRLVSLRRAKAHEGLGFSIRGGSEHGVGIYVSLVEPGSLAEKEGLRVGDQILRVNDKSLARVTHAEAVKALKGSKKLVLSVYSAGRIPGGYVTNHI
Parameters: key: below the threshold = too weak to quantify, mostly under pKd 3.1 to 4
With B1 the pKd was “below the threshold”. With B2 the pKd was “below the threshold”. B3 showed a pKd of 4.86.

These binders were tested against T6, ARHGAP21, Q5T5U3 (assay: holdup assay). Conditions: plain residues with an end cap or a label only (N-terminal biotin on a linker: ado-ado).
T6 sequence (Q5T5U3 45-169, limits assumed, looked up): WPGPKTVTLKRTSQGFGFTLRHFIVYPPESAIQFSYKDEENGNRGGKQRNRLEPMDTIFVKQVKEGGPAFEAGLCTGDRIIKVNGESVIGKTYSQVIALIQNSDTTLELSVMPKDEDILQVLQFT
Parameters: key: below the threshold = too weak to quantify, mostly under pKd 3.1 to 4
In the case of B1, the pKd is reported as “below the threshold”. For B2, the pKd was “below the threshold”. B3 showed a pKd of 4.15.

What follows are binders tested against T7, HTRA3, P83110 (assay: holdup assay). Conditions: plain residues with an end cap or a label only (N-terminal biotin on a linker: ado-ado).
T7 sequence (P83110 354-453, limits assumed, looked up): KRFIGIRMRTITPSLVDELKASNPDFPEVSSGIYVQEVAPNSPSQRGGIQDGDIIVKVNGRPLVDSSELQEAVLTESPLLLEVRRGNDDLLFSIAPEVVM
Parameters: key: below the threshold = too weak to quantify, mostly under pKd 3.1 to 4
B1 was tested, and the pKd was “below the threshold”. In the case of B2, the pKd is reported as 3.95. In the case of B3, the pKd is reported as “below the threshold”.

The binders below were run against T8, LNX2_2, Q8N448 (assay: holdup assay). Conditions: plain residues with an end cap or a label only (N-terminal biotin on a linker: ado-ado).
T8 sequence (Q8N448 334-432, limits assumed, looked up): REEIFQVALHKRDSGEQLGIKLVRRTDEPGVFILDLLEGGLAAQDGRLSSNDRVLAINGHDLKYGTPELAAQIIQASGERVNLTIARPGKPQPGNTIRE
Parameters: key: below the threshold = too weak to quantify, mostly under pKd 3.1 to 4
For B1, the pKd was “below the threshold”. B2 was tested, and the pKd was 4.07. Work on B3 yielded a pKd of 3.98.

Each binder was assayed against Inadl_10, Q8NI35 (assay: holdup assay). Conditions: plain residues with an end cap or a label only (N-terminal biotin on a linker: ado-ado).
Sequence of Inadl_10, Q8NI35 (Q8NI35 1673-1763): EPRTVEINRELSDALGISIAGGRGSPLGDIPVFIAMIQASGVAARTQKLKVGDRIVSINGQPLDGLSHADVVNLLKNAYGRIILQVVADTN
Parameters: key: below the threshold = too weak to quantify, mostly under pKd 3.1 to 4
In the case of B1, the pKd is reported as “below the threshold”. For B2, the pKd was “below the threshold”. B3 was tested, and the pKd was “below the threshold”.

The binders below were run against T9, SNTB1, Q13884 (assay: holdup assay). Conditions: plain residues with an end cap or a label only (N-terminal biotin on a linker: ado-ado).
T9 sequence (Q13884 107-205, limits assumed, looked up): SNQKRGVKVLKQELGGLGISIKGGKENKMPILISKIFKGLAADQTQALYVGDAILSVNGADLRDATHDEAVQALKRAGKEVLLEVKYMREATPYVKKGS
Parameters: key: below the threshold = too weak to quantify, mostly under pKd 3.1 to 4
B1 was tested, and the pKd was “below the threshold”. With B2 the pKd was “below the threshold”. For B3, the pKd was 5.23.

These binders were tested against SCRIB_1, Q14160 (assay: holdup assay). Conditions: plain residues with an end cap or a label only (N-terminal biotin on a linker: ado-ado).
Sequence of SCRIB_1, Q14160 (Q14160 718-814): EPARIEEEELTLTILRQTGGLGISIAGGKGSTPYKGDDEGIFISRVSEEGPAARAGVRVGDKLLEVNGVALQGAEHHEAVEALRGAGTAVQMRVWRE
Parameters: key: below the threshold = too weak to quantify, mostly under pKd 3.1 to 4
With B1 the pKd was “below the threshold”. B2 was tested, and the pKd was “below the threshold”. With B3 the pKd was 4.54.

What follows are binders tested against NHERF4_2, Q86UT5 (assay: holdup assay). Conditions: plain residues with an end cap or a label only (N-terminal biotin on a linker: ado-ado).
Sequence of NHERF4_2, Q86UT5 (Q86UT5 220-308): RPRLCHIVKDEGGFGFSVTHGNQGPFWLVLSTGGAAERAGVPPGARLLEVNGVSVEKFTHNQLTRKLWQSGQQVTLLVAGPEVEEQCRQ
Parameters: key: below the threshold = too weak to quantify, mostly under pKd 3.1 to 4
With B1 the pKd was “below the threshold”. With B2 the pKd was “below the threshold”. With B3 the pKd was “below the threshold”.

What follows are binders tested against GIPC2, Q8TF65 (assay: holdup assay). Conditions: plain residues with an end cap or a label only (N-terminal biotin on a linker: ado-ado).
Sequence of GIPC2, Q8TF65 (Q8TF65 112-203): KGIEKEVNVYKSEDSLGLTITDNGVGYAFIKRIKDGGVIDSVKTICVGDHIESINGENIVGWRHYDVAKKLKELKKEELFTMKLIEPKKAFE
Parameters: key: below the threshold = too weak to quantify, mostly under pKd 3.1 to 4
For B1, the pKd was “below the threshold”. With B2 the pKd was “below the threshold”. Work on B3 yielded a pKd of 4.32.

The binders below were run against T10, RAPGEF6, Q8TEU7 (assay: holdup assay). Conditions: plain residues with an end cap or a label only (N-terminal biotin on a linker: ado-ado).
T10 sequence (Q8TEU7 525-625, limits assumed, looked up): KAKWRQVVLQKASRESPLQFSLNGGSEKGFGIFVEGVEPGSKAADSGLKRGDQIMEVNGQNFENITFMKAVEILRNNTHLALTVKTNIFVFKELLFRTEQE
Parameters: key: below the threshold = too weak to quantify, mostly under pKd 3.1 to 4
In the case of B1, the pKd is reported as “below the threshold”. For B2, the pKd was “below the threshold”. Work on B3 yielded a pKd of 3.64.

These binders were tested against T11, DFNB31_3, Q9P202 (assay: holdup assay). Conditions: plain residues with an end cap or a label only (N-terminal biotin on a linker: ado-ado).
T11 sequence (Q9P202 811-907, limits assumed, looked up): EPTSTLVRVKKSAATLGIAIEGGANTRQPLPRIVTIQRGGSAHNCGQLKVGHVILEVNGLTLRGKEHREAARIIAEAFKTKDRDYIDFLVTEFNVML
Parameters: key: below the threshold = too weak to quantify, mostly under pKd 3.1 to 4
B1 was tested, and the pKd was “below the threshold”. In the case of B2, the pKd is reported as “below the threshold”. For B3, the pKd was “below the threshold”.

Each binder was assayed against PICK1, Q9NRD5 (assay: holdup assay). Conditions: plain residues with an end cap or a label only (N-terminal biotin on a linker: ado-ado).
Sequence of PICK1, Q9NRD5 (Q9NRD5 17-115): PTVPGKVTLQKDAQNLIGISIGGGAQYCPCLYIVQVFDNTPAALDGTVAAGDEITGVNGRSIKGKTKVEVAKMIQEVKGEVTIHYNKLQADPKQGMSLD
Parameters: key: below the threshold = too weak to quantify, mostly under pKd 3.1 to 4
B1 was tested, and the pKd was “below the threshold”. With B2 the pKd was “below the threshold”. For B3, the pKd was “below the threshold”.

Each binder was assayed against T12, APBA2_2, Q99767 (assay: holdup assay). Conditions: plain residues with an end cap or a label only (N-terminal biotin on a linker: ado-ado).
T12 sequence (Q99767 654-744, limits assumed, looked up): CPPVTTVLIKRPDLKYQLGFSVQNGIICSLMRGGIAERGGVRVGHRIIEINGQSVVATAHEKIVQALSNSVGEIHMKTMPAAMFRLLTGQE
Parameters: key: below the threshold = too weak to quantify, mostly under pKd 3.1 to 4
In the case of B1, the pKd is reported as “below the threshold”. In the case of B2, the pKd is reported as “below the threshold”. In the case of B3, the pKd is reported as “below the threshold”.

What follows are binders tested against T13, SNTG1, Q9NSN8 (assay: holdup assay). Conditions: plain residues with an end cap or a label only (N-terminal biotin on a linker: ado-ado).
T13 sequence (Q9NSN8 52-150, limits assumed, looked up): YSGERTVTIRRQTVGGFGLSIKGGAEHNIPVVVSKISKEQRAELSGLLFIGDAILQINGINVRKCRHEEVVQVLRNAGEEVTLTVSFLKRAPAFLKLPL
Parameters: key: below the threshold = too weak to quantify, mostly under pKd 3.1 to 4
For B1, the pKd was “below the threshold”. B2 was tested, and the pKd was “below the threshold”. B3 gave a pKd of 5.53.

The binders below were run against PTPN3, P26045 (assay: holdup assay). Conditions: plain residues with an end cap or a label only (N-terminal biotin on a linker: ado-ado).
Sequence of PTPN3, P26045 (P26045 505-587): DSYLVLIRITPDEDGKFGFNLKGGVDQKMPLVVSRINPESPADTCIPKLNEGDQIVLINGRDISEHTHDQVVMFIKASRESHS
Parameters: key: below the threshold = too weak to quantify, mostly under pKd 3.1 to 4
Work on B1 yielded a pKd of 3.88. B2 was tested, and the pKd was “below the threshold”. Work on B3 yielded a pKd of 4.95.

The binders below were run against IL16_3, Q14005 (assay: holdup assay). Conditions: plain residues with an end cap or a label only (N-terminal biotin on a linker: ado-ado).
Sequence of IL16_3, Q14005 (Q14005 1107-1207): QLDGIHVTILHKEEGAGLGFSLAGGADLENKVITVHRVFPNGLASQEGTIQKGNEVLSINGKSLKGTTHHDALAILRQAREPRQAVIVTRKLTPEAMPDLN
Parameters: key: below the threshold = too weak to quantify, mostly under pKd 3.1 to 4
With B1 the pKd was “below the threshold”. With B2 the pKd was “below the threshold”. With B3 the pKd was “below the threshold”.
